Measured values published in patent US20150065436A1 (UNIVERSITY OF SOUTHERN CALIFORNIA, published 2015).
Ends that are not written are not given here.

Key:
[1] = target: T1, p300-CH1 (cysteine-histidine rich 1 domain of human coactivator protein p300, amino acid residues 323-423) (human, UniProt Q09472 323-423, uniformly 15N-labelled; folded with 3 equivalents of Zn2+); assay: fluorescence polarization, p300-CH1 titrated into 15 nM fluorescein-labeled HIF-1α C-TAD786-826
T1 construct: range 323-423; Expressed in E. coli from pGEX-4T-2 as a GST fusion; also called p300 CH1 domain; 15N-labeled p300-CH1
T1 sequence (Q09472 323-423 limits assumed): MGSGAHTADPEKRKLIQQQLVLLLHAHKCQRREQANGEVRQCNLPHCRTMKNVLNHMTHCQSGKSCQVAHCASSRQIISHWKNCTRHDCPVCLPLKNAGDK

[2] = target: T1, p300-CH1 (cysteine-histidine rich 1 …); assay: fluorescence polarization, p300-CH1 titrated into 15 nM fluorescein-labeled HIF peptide

- EC50 (read off the curve) [1]: ~0.04 µM
- Kd [1]: 0.0319 µM
- Kd [2]: 0.031 µM
B1: fluorescein-labeled HIF-1α C-TAD786-826 (peptide)
peptide: SMDESGLPQLTSYDCEVNAPIQGSRNLLQGEELLRALDQVN
modifications: also: fluorescein label, site shown only in structure
notes: Fluorescent probe of the polarization assay; also called Flu-HIF C-TAD
